From the PETadex activity labels

B1: unnamed (protein)
chain: MKFQRFLQATVLAGATLLSFGAAAIEIGPAPTKASLEASRGPFSVGQFTVSRPSGYGAGTVYYPTNAGAKVGAIAIVPGFVSYQSSIAWWGPRLASHGFVVITIDTNTTVDQPDSRSRQQLAALDQVIALSKTSSSPIYNKVDENRTGVMGWSMGGGGSLISAKNRPSIKAAAPQAPWNSSTNFSSVTVPTLIFACQSDIVAPVAQHASPFYNSITRAPKQYLEKTLGDHFCFNSANATVGLKGVAWMKRFIDGDTRYTSFACSNPNALGFSDFRTARCS
B2: unnamed (protein)
chain: MEISKKKCLIGLGLMAMAMGVQAQTNPLAKGPDPTNASIQANGPFAVTTVTISNANANGYGGATVYVPTAAGTYALVAFSPGFTARQDTIAVIGRRLATHGFVVATIDTNSTLDLPDSRGTQLLAALRSVAALNAGNTAAAGKIDTTRLVVTGHSMGGGGTLFASRTNTAIKAGVPIAPFSSGVKNFATPVPQFILGGEVDNVAPVDEHSIPFFNGLPNATPKVYAELNGEDHFFVSESTPNQPASKFQIAWIKRFADNDARYTQFVNSAGVAVERNNGRLSDGRLESF
B3: unnamed (protein)
chain: MIMKNIDRRLRHCAVGLGLLLLAAVAQAQTNPLAKGPDPTSDLLNATAGPFAVATTSVSSSVSGFGGGTVYYPTASGSYATVAVCPGFTATQSSIAWIGRRMASHGFVVMTINTNSTLDQPPSRATQLMAALRYLTNSSNSTVRARVDANRLGVAGHSMGGGGTLMAARDNPTLKAAVPMTPWSQTKSFSTVRVPTLIVGAENDSVAPVASHSIPFYTSLSGSLDKAYAELNNASHFAPNSTNTPIGRYSVAWVKRFMDNDTRY
B4: unnamed (protein)
chain: MERKNSRRSWAIGLGLLVLAATSAHAQTNPYQKGPDPTSASLNATSGSFSVATSSVSSAVSGFGGGTIYYPTTTGTYAVLAISPGFTATQSSIAWLGRRIATHGFVVITIDTNSTLDQPPSRATQLMAALNYVTNSSSATVRAKVDASRRGVAGHSMGGGGTLYAARDNPSLKAAVPLTAWSTLKSFSSVQVPTLVVGAESDSIAPVSSHSIPFYNSLSGSLDKAYAELNGASHLAPNSTNTPIGRYSVAWVKRFMDNDTRYTPFLCGTPHT
B5: unnamed (protein)
chain: MFGKFPFARAGLAVGALLLSAAAVAQTNPYQRGPDPTVASLEATRGSFATSSFTVSRPSGYGAGTVYYPTNAGGKVGAIAVVPGFTARQSSINWWGARLASHGFVVITIDTNSTLDQPSSRSSQQMAALRQVVTLAGTTSSPIYNKVDTARLGVMGWSMGGGGSLISAKNNPTLRAAAPQAPWAQESFSTVTVPTLIISCESDTIAPNNTHSFPFYNQMTRNKKANLVINGGSHSCANSGNADAGLIGKYGVAWMKRFMDDDTRFSKFLCGAEHTADLSKRAIEAYKENCPY
B6: unnamed (protein)
chain: MKTSRTRTATTTLTRLARLALAAAALLLSAAAQAQSSNPYQRGPDPTAASLEASAGPFAVSTTTVSSASGFGGGTIYYPTNTEGPFAAIAVVPGFTATQSSISWWGPRLASHGFVVITIDTNSTFDQPASRATQLMAALNYVVSLSNTSSSPIYGKVDSNRLGVMGHSMGGGGTLIAARDNPTLKAAIPLAPWNSSTNFSSVTVPTLIIACENDTVAPVSSHASPFYNSIPSSTDKAYLEINGGDHFCANSGNSNKAILGKYGVAWMKRFLDNDTRYSPFLCGAPHQADLSGSAISEYRDNCPY
B7: unnamed (protein)
chain: MDPSLKRALGLVVALTAAMLFSASASAQNPPPDDDPEPCQTDCDDGGNGGYTRGPDPTDSYLEASSGPYNVATSNVSSFVSGFGGGTIHYPTNTSGSMGGIVVIPGYVSYESSIEWWGPRLASHGFVVMTIDTNSIYDQPGSRKDQIDAALDYLVGQSNASSSAISGMVDGDRLAAVGWSMGGGGTLQLAAEPGRLKAAMPLAPWNSSFNDFDQIQTPTLIFACESDAVAPVSSHASPFYNDIPDATDKAFFEMNNGSHTCANGGNAYDELLGKYGVSWMKLHLDEDQRYEQFLCGPNHESEYQVS
B8: unnamed (protein)
chain: MPTPNTRPTPFGRLLQVTLAVSALALSLGAQAQQTGADPTTAILEAPAGPLAVSNVKVATPSGFGSGTVYYPTTGKGPYGLVSVTPGFVEGEWAINWLGPLLASHGFVVVTIGTTTILDAPTSRAKQMMAALKQVTALSATKTSPFAGKVDPSRLAVMGHSMGGGGSLDAARDNPNLKAAIPLAPWETTKDYSKITVPTLIVSCDSDVIAPVADHANKFYDSLTPTLTKALVEMKGAGHFCTNGTAIPATRTLVGKYSISWLKRFVDGDTRYSPFLCGAPHQADLAGSLISTYKGNCPY
B9: unnamed (protein)
chain: MIEIRSSYKSKKTNCKRSVMPSMITKKAALPFVISSALLFSASAFAITPPSDPDPDPTPCEGDCDFTRGPDPTESMLEARSGPFNVDTVNVSSRVSGFGGGTIHYPTNTSGQMGAIVVAPGFVSPESSIGWWGPQLASHGFIVMTIATNSLYDQPDSRRDQLEAGLDYLISQSNSSGSDISGMVDSSRLGAMGWSMGGGGALQLAADGRLSAAIPLAPYNSSRNDFDDITTPTLIFACENDAVAAVRSHASPFYNDIPGSTDKAFVEINGGAHSCANGGNTNNSLLSKYGVSWMKLHLDQDQRYSQFLCGPNHESDRSISEYRGTCPY
B10: unnamed (protein)
chain: MNSRRASRLARAALAAGALLLSAAALATSNPYQRGPDPTAASLEASRGPFAVSSFTVSRPSGFGAGTVYYPTNAGGTVGAIAVVPGFTARQSSINWWGPRLASHGFVVITIDTNSTSDQPASRATQLMAALRQVVTLSGTSSSPIYNKVDTSRLGVMGWSMGGGGTLIAARNNPTLKAAVPLAPWNSSTNFSSVTVPTLIIACENDTVAPVSSHASPFYNSMTRTEKAYLEINGGSHSCANSGNSNQALLGKYGVAWMKRFMDNDTRYSSFLCGAPHSADLSSKSAISEYRENCPY
B11: unnamed (protein)
chain: MRACCAFNSTIPGDTMSLQLTKHFGLAALACAALMSLGAAAHAQSYQKGPNPTASALERAGPFATRTTDVSRYSVTNFGGGTIYYPTAAGQYGAIAVSPGYTASKSTVTFWGERLSSHGFVVIVIDTLTTLDQPASRARQLKAALDKVVSLSRSSSSPIYNKVDPNRLAVMGHSMGGGGTLQAAKDNPGLKAAIPMAPWNTVTNWSAVTVPTLVMACQADAIAPVANHAVPFYNSMSANKKSYIEMAGDDHLCVMNGGGHDATLGKMGIAWMKRFVDNDTRYSPFLCGLPYQATVNTSEVSVHRNNCPY
B12: unnamed (protein)
chain: MRSAKTSVLAAVALGAAALLALGACGGSNNPYIRGDDPTEESLSRPGPYAVKSLTEGDRNGPGYGGGTIYYPTDAEPPFAAVAIVPGFTSPQSSIASWGPFLASHGIVAMTIDTNSTFDQPDTRAAALLDALESIKGENTRAGSPLKGKLDTNRLGVMGWSMGGGGTLIAAKDNPELKAAISLCPWNPGSSYSNTKVPTLMIASQADPLAGVSGHSQPFYDSIPDSTPKMLFEVAGGDHFVANNPANGNGQVGRYGLSWLKRFLEGDERYRPFLLEKPPGASDYRTNVY
B13: unnamed (protein)
chain: MAKDRAGDVAAAKLNKSHLRGSPMEITQRGARILGTKCAASLGLLLLAATAAHAQSNPYAKGPDPTSSSLNASAGPFSVATSSVSSLAAVGFGSGTVYYPTTAGSYAAIAISPGFTATESSIAWLGRRVATHGFVVITINTNSTLDQPPSRATQLMAALRYLTNSSSSTVRSRIDTTRLGLAGHSMGGGGTLIAARDNPSLKAAVPLTAWSVTKSFSTMRVPTLVVGAENDSIASVSSHSIPFYNSLPSSLSKAYAELNGASHFAPNTTNTPIGRYTVAWVKRFMDNDTRYSPFLCGSPHDSYATGLVFSDYRDNCPY
B14: unnamed (protein)
chain: MQHSPSTSRTRQRVTGILASLAVAVGVGIAAGPAAQGADNPHERGPDPTESSIEASRGSYSISERNVSSLVSGFGGGTIYYPTTTRDGDFGAVVISPGYTGTERTISWLGPRLASQGFVVLTMATNSIYDQPDSRARQLQAALDYLTDSSPVADRIDADRLALMGHSMGGGGTLRAVDDNPDIKAAIPMTPWHVKKNWSSVSTPTLIFGAENDSVARHETHAEPFYESFDRDLQKAYLELDGASHFAPNSSNTTIAKYSISWLKRFVDDDTRYTQFLCPGPSTGWFSDVEKYESSCPF
B15: unnamed (protein)
chain: MRKISFKASLFSTLTLLASSITYAGGGGGNGGNNNGGLPAPDTCEVNCGYNQGSNPSLNSLQSTRGNFSVATSNVPRSVPGFGGGTIYYPRNTSGELATIAIAPGFTAPQDAISWWGPVLASNGFVVITIDTNSRLDQPISRGRQLDSALSYLISQGNSSNSPISGMVDENRLASMGHSMGGGGALRSASRNRLSAAIPLAPFNVGGNSFNDIEVPTMIMACENDGTAPVNIHASPFYNRIPSSTDKALIELDNGNHSCANGGSGRNNAVLATYGVSWMKRFLDKDQRFIPFLCGPNHEANRGISDYRD

Substrate: BHET
Settings: 120 h

Protein	plate clearing
B1	not clears the plate
B2	not clears the plate
B3	not clears the plate
B4	not clears the plate
B5	not clears the plate
B6	clears the plate (z > 3 vs empty vector)
B7	not clears the plate
B8	not clears the plate
B9	not clears the plate
B10	clears the plate (z > 3 vs empty vector)
B11	clears the plate (z > 3 vs empty vector)
B12	not clears the plate
B13	not clears the plate
B14	not clears the plate
B15	not clears the plate
